Test results from article PMC3350598 (Structure(London, England:1993), 2012).

T1: Broxs, short form of the human Brox protein (residues 2-377) (human, UniProt Q5VW32 2-377)
T1 sequence (looked up): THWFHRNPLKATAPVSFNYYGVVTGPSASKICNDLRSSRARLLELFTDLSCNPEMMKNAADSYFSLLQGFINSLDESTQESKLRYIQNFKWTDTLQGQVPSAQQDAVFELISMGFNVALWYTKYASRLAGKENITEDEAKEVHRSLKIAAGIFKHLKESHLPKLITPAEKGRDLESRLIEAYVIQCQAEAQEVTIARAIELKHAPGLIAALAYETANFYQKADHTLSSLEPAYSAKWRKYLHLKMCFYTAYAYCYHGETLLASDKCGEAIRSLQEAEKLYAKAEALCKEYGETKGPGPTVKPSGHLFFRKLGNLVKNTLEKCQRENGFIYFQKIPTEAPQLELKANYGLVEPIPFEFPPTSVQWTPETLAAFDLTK

T2: Broxl, long form of the human Brox protein (residues 2-411) (human, UniProt Q5VW32 2-411)
T2 sequence (looked up): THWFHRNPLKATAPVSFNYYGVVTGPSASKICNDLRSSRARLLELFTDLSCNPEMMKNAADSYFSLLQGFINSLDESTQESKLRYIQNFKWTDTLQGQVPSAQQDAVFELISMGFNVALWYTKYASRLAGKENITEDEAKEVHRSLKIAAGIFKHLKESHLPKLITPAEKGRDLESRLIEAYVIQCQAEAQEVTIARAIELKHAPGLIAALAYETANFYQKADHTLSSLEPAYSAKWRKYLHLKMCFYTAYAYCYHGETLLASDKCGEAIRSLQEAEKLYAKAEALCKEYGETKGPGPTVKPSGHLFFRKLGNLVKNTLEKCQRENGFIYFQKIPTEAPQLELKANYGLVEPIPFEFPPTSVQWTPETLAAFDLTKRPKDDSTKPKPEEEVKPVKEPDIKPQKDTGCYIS


Columns and labels:
[1] = target: T1, Broxs, short form of the human Brox …; assay: crystal structure
[2] = target: T2, Broxl, long form of the human Brox …; assay: crystal structure

| binding result [1] | binding result [2] | Binder |
| --- | --- | --- |
| binds | binds | C-terminal fragment of human CHMP5 (residues 151-219) (domain or fragment, UniProt Q9NZZ3 151-219, looked up) RSYGTPELDEDDLEAELDALGDELLADEDSSYLDEAASAPAIPEGVPTDTKNKDGVLVDEFGLPQIPAS |
| binds | binds | TKNKDGVLVDEFGLPQIPAS [synthesized peptide corresponding to the CHMP5 C-terminal 20 residues] |
